Substrate in data set [1]: C[C@H](N)C(=O)O
Description: Km value for Alanine racemase from Pseudomonas aeruginosa.

Substrate in data set [2]: NC(CCl)P(=O)(O)O
Description: Km for Alanine racemase from Pseudomonas aeruginosa
The following applies: Pseudomonas aeruginosa.

B1: Alanine racemase, biosynthetic (Escherichia coli K-12), P0A6B4 (protein)
chain: MQAATVVINRRALRHNLQRLRELAPASKMVAVVKANAYGHGLLETARTLPDADAFGVARLEEALRLRAGGITKPVLLLEGFFDARDLPTISAQHFHTAVHNEEQLAALEEASLDEPVTVWMKLDTGMHRLGVRPEQAEAFYHRLTQCKNVRQPVNIVSHFARADEPKCGATEKQLAIFNTFCEGKPGQRSIAASGGILLWPQSHFDWVRPGIILYGVSPLEDRSTGADFGCQPVMSLTSSLIAVREHKAGEPVGYGGTWVSERDTRLGVVAMGYGDGYPRAAPSGTPVLVNGREVPIVGRVAMDMICVDLGPQAQDKAGDPVILWGEGLPVERIAEMTKVSAYELITRLTSRVAMKYVD
The term Km denotes the substrate concentration at which the rate is half of its maximum. With B1, the Km in data set [1] is 14.2 mM; in data set [2], 8 mM.

For the origin of these results see ChEMBL document CHEMBL1123197, “(beta-Chloro-alpha-aminoethyl)phosphonic acids as inhibitors of alanine racemase and D-alanine:D-alanine ligase” (J Med Chem, 1986).
